In this data set the test system is Escherichia coli TOP10. The data set can be described thus: shrunken log2 fold change of peptide-encoding DNA abundance (4.5 h post-induction vs induction); higher = less antimicrobial activity (less host growth inhibition). Conditions: time post-induction: 4.5 h; library: site-saturation at positions 5, 18, 19, 20.
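Note: peptides expressed intracellularly from a pBAD plasmid library in pooled LB shake-flask culture, induced with 0.3% L-arabinose, DNA abundance read by NGS, three biological replicates, DESeq2 with apeglm shrinkage.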

Consider RRIRCRPPRLPRPRPRPRAWPRP, for which the “shrunken log2 fold change” value turned out to be 0.24.

With RRIRDRPPRLPRPRPRPCFQPRP, the “shrunken log2 fold change” value was -0.0196.

For the sequence RRIRDRPPRLPRPRPRPMPQPRP, the “shrunken log2 fold change” value was 0.0354.

Take RRIRIRPPRLPRPRPRPDFIPRP: the “shrunken log2 fold change” value was -0.447.

Turning to RRIRKRPPRLPRPRPRPYDYPRP, the “shrunken log2 fold change” value is -0.0386.

For RRIRGRPPRLPRPRPRPYCLPRP, the “shrunken log2 fold change” value was -0.305.

For RRIRERPPRLPRPRPRPIVAPRP, the “shrunken log2 fold change” value was found to be 0.33.

Take RRIRHRPPRLPRPRPRPRIAPRP: the “shrunken log2 fold change” value amounted to 0.0721.

With RRIRYRPPRLPRPRPRPWIFPRP, the “shrunken log2 fold change” value is -0.505.

Regarding RRIRPRPPRLPRPRPRPQADPRP, the “shrunken log2 fold change” value stood at 0.154.

Take RRIRCRPPRLPRPRPRPSSQPRP: the “shrunken log2 fold change” value was -0.377.

Take RRIRMRPPRLPRPRPRPKTSPRP: the “shrunken log2 fold change” value stood at 0.641.

In the case of RRIRGRPPRLPRPRPRPHGLPRP, the “shrunken log2 fold change” value was 0.211.

With RRIRIRPPRLPRPRPRPRYEPRP, the “shrunken log2 fold change” value is -0.011.

Consider RRIRVRPPRLPRPRPRPYEIPRP, for which the “shrunken log2 fold change” value is -0.14.

For the sequence RRIRIRPPRLPRPRPRPIKEPRP, the “shrunken log2 fold change” value was -0.021.

Turning to RRIRNRPPRLPRPRPRPMLDPRP, the “shrunken log2 fold change” value was -0.000365.

With RRIRWRPPRLPRPRPRPLMKPRP, the “shrunken log2 fold change” value is -0.0639.

RRIRIRPPRLPRPRPRPNALPRP: the “shrunken log2 fold change” value was -0.245.

As to RRIRERPPRLPRPRPRPKLDPRP, the “shrunken log2 fold change” value is -0.052.

For the sequence RRIRLRPPRLPRPRPRPSVMPRP, the “shrunken log2 fold change” value is -0.199.

Turning to RRIRTRPPRLPRPRPRPPNWPRP, the “shrunken log2 fold change” value was 0.845.

Regarding RRIRQRPPRLPRPRPRPRLIPRP, the “shrunken log2 fold change” value was -0.076.

For RRIRFRPPRLPRPRPRPKWGPRP, the “shrunken log2 fold change” value is 0.129.

As to RRIRIRPPRLPRPRPRPDIKPRP, the “shrunken log2 fold change” value was -0.576.

RRIRVRPPRLPRPRPRPWSIPRP: the “shrunken log2 fold change” value is -0.0192.

Consider RRIRTRPPRLPRPRPRPKDNPRP, for which the “shrunken log2 fold change” value was -0.5.

In the case of RRIRQRPPRLPRPRPRPDNNPRP, the “shrunken log2 fold change” value was -1.14.

Take RRIRDRPPRLPRPRPRPGLYPRP: the “shrunken log2 fold change” value stood at 0.199.

For the sequence RRIRNRPPRLPRPRPRPSLMPRP, the “shrunken log2 fold change” value is 0.0538.

On to RRIRSRPPRLPRPRPRPCCVPRP, for which the “shrunken log2 fold change” value came to 0.0729.

RRIRYRPPRLPRPRPRPVEAPRP: the “shrunken log2 fold change” value was -0.35.

On to RRIRERPPRLPRPRPRPSLWPRP, for which the “shrunken log2 fold change” value is -0.151.

On to RRIRERPPRLPRPRPRPSWYPRP, for which the “shrunken log2 fold change” value was -1.

Consider RRIRRRPPRLPRPRPRPSDDPRP, for which the “shrunken log2 fold change” value was 0.209.

For the sequence RRIRYRPPRLPRPRPRPQDCPRP, the “shrunken log2 fold change” value is -0.363.

As to RRIRLRPPRLPRPRPRPGDHPRP, the “shrunken log2 fold change” value was -0.202.

For the sequence RRIRTRPPRLPRPRPRPIDCPRP, the “shrunken log2 fold change” value stood at 0.0429.

For RRIRCRPPRLPRPRPRPFNWPRP, the “shrunken log2 fold change” value was -0.648.

Take RRIRTRPPRLPRPRPRPCISPRP: the “shrunken log2 fold change” value was -0.503.

RRIRYRPPRLPRPRPRPVIGPRP: the “shrunken log2 fold change” value was -0.661.

As to RRIRPRPPRLPRPRPRPKLHPRP, the “shrunken log2 fold change” value is -0.00244.

Take RRIRLRPPRLPRPRPRPKKSPRP: the “shrunken log2 fold change” value amounted to 0.018.

Regarding RRIRMRPPRLPRPRPRPYNLPRP, the “shrunken log2 fold change” value is 0.227.

For RRIRERPPRLPRPRPRPGWNPRP, the “shrunken log2 fold change” value amounted to 0.277.

For RRIRTRPPRLPRPRPRPMPKPRP, the “shrunken log2 fold change” value was determined as 0.116.

RRIRCRPPRLPRPRPRPNARPRP: the “shrunken log2 fold change” value came out at 0.00577.

RRIRDRPPRLPRPRPRPILYPRP: the “shrunken log2 fold change” value was -0.131.

In the case of RRIRWRPPRLPRPRPRPRYAPRP, the “shrunken log2 fold change” value was found to be 0.32.

On to RRIRVRPPRLPRPRPRPEPYPRP, for which the “shrunken log2 fold change” value is -0.2.

Regarding RRIRPRPPRLPRPRPRPWVTPRP, the “shrunken log2 fold change” value is -0.00388.

As to RRIRSRPPRLPRPRPRPSKLPRP, the “shrunken log2 fold change” value is -0.398.

RRIRSRPPRLPRPRPRPFWEPRP: the “shrunken log2 fold change” value stood at 0.0122.

For RRIRGRPPRLPRPRPRPDAWPRP, the “shrunken log2 fold change” value was 1.17.

For RRIRARPPRLPRPRPRPYPPPRP, the “shrunken log2 fold change” value was -0.129.

RRIRLRPPRLPRPRPRPQGQPRP: the “shrunken log2 fold change” value was -0.0201.

RRIRMRPPRLPRPRPRPKYQPRP: the “shrunken log2 fold change” value was 0.0592.

Consider RRIRIRPPRLPRPRPRPQYYPRP, for which the “shrunken log2 fold change” value was -1.28.

In the case of RRIRFRPPRLPRPRPRPKDYPRP, the “shrunken log2 fold change” value is -0.788.

In the case of RRIRKRPPRLPRPRPRPLIWPRP, the “shrunken log2 fold change” value came out at 0.761.

Turning to RRIRIRPPRLPRPRPRPFDQPRP, the “shrunken log2 fold change” value was -0.385.

As to RRIRYRPPRLPRPRPRPFSSPRP, the “shrunken log2 fold change” value was found to be 0.015.

Consider RRIRWRPPRLPRPRPRPSGKPRP, for which the “shrunken log2 fold change” value was -0.0778.

With RRIRPRPPRLPRPRPRPWGSPRP, the “shrunken log2 fold change” value is 0.216.

As to RRIRQRPPRLPRPRPRPQQDPRP, the “shrunken log2 fold change” value amounted to 0.206.

For RRIRYRPPRLPRPRPRPADHPRP, the “shrunken log2 fold change” value is -0.0872.

For the sequence RRIRLRPPRLPRPRPRPYVSPRP, the “shrunken log2 fold change” value was -0.0356.

As for RRIRSRPPRLPRPRPRPEGAPRP, the “shrunken log2 fold change” value was 1.95.

Regarding RRIRCRPPRLPRPRPRPVDLPRP, the “shrunken log2 fold change” value was -0.348.

With RRIRIRPPRLPRPRPRPTLAPRP, the “shrunken log2 fold change” value came out at 0.236.

As to RRIRNRPPRLPRPRPRPRDYPRP, the “shrunken log2 fold change” value was -0.0159.

As to RRIRVRPPRLPRPRPRPEHMPRP, the “shrunken log2 fold change” value was -0.0512.

With RRIRARPPRLPRPRPRPFHMPRP, the “shrunken log2 fold change” value is -1.05.

For the sequence RRIRNRPPRLPRPRPRPFMLPRP, the “shrunken log2 fold change” value was -1.17.

Take RRIRGRPPRLPRPRPRPEKTPRP: the “shrunken log2 fold change” value was -0.0522.

Turning to RRIRCRPPRLPRPRPRPRREPRP, the “shrunken log2 fold change” value was found to be 0.746.

Turning to RRIRPRPPRLPRPRPRPWIQPRP, the “shrunken log2 fold change” value turned out to be 0.0178.

With RRIRDRPPRLPRPRPRPIPEPRP, the “shrunken log2 fold change” value is -0.138.

As for RRIRWRPPRLPRPRPRPICLPRP, the “shrunken log2 fold change” value is 0.0313.

Take RRIRQRPPRLPRPRPRPHVQPRP: the “shrunken log2 fold change” value was -0.46.

For the sequence RRIRYRPPRLPRPRPRPWPIPRP, the “shrunken log2 fold change” value amounted to 0.044.

In the case of RRIRTRPPRLPRPRPRPIAWPRP, the “shrunken log2 fold change” value is -0.104.

As for RRIRDRPPRLPRPRPRPMIRPRP, the “shrunken log2 fold change” value is -0.0188.

Take RRIRIRPPRLPRPRPRPRLWPRP: the “shrunken log2 fold change” value was determined as 0.0665.

Consider RRIRARPPRLPRPRPRPCAPPRP, for which the “shrunken log2 fold change” value turned out to be 0.384.

Turning to RRIRFRPPRLPRPRPRPCSNPRP, the “shrunken log2 fold change” value is -0.0316.

With RRIRERPPRLPRPRPRPSPVPRP, the “shrunken log2 fold change” value is -0.268.

In the case of RRIRFRPPRLPRPRPRPWCKPRP, the “shrunken log2 fold change” value is -0.0278.

For the origin of these results see the supplement of paper PMC9112550, “Optimization of the antimicrobial peptide Bac7 by deep mutational scanning” (BMC Biology, 2022).
